# Laboratory results taken from patent US20050256044A1.
# Experiments:
# [1] = biological target: V5His6-tagged polypeptide of human GIPF (GIPFt) (human); assay: cell-based or functional assay
# [2] = biological target: human wild type, full-length GIPF polypeptide (GIPFwt) (human) (UniProt Q2MKA7); assay: cell-based or functional assay
# Chain of UniProt Q2MKA7 (Q2MKA7 21-263 limits assumed): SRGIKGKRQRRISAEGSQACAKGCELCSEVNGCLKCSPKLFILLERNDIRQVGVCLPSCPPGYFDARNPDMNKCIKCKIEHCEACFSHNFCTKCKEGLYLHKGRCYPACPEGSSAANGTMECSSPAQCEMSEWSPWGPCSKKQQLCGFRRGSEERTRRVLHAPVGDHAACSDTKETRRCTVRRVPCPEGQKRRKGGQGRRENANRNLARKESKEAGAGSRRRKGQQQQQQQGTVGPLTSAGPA
# Chain of V5His6-tagged polypeptide of human GIPF (GIPFt) (human) (chain, as listed by the source limits assumed): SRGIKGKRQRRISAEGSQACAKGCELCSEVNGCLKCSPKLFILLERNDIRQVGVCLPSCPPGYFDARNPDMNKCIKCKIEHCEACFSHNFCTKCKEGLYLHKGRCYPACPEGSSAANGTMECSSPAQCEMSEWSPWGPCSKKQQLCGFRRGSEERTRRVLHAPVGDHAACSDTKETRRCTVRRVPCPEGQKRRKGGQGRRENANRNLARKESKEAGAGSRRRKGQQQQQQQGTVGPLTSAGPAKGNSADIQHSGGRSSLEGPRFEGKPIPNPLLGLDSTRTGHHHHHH
substance,measurement,setting,value
furin protease (from UniProt P09958 108-794) (enzyme),N-terminal sequence analysis of protein from HEK293 cells; ratio of mature to dominant mature forms (ratio mature:dominant mature),[1],0.5
same,N-terminal sequence analysis of protein from HEK293 cells; ratio of mature to dominant mature forms (ratio mature:dominant mature),[2],0.5
